Here are results for three molecules from paper PMC7616425, “Transient Structural Properties of the Rho GDP-Dissociation Inhibitor” (Angewandte Chemie (International ed. in English), 2024).

A word on the Kd: it is the equilibrium constant for the complex coming apart. In general, koff refers to the rate constant with which the complex falls apart. By kon is commonly meant a measure of how fast the partners come together. A lower kon goes with slower complex formation.

The labels stand for the following.
B2: Alexa647-labeled RhoGDI1 L56G (natural protein, bovine, UniProt P19803 1-204, looked up)
chain: MAEQEPTAEQLAQIAAENEEDEHSVNYKPPAQKSIQEIQELDKDDESLRKYKEALGGRVAVSADPNVPNVVVTRLTLVCSTAPGPLELDLTGDLESFKKQSFVLKEGVEYRIKISFRVNREIVSGMKYIQHTYRKGVKIDKTDYMVGSYGPRAEEYEFLTPMEEAPKGMLARGSYNIKSRFTDDDRTDHLSWEWNLTIKKEWKD
modifications: Alexa647 acceptor (site not stated)

Assay [1] has as its target Cdc42, homogeneously geranylgeranylated in vitro (UniProt P60953 1-191, geranylgeranylated in vitro (residue not stated)). Description: cell-based or functional assay.
Assay [2] concerns the target B2. As to the kind of experiment: FRET or BRET; dissociation assay: 80 nM dual-labeled complex (Alexa647 on RhoGDI1, Cy3 on Cdc42) mixed with excess (5 μM) unlabeled GDI; mono-exponential fits; KD calculated from the measured dissociation rate constant and the association rate constant measured for wt (assumed for the mutants). The conditions noted are these: both partners purified.

The target in assay [3] is T1, Alexa647-labeled RhoGDI1 (wt) (bovine, UniProt P19803 1-204, Alexa647 acceptor (site not stated)).
T1 construct: also called wildtype GDI; wt RhoGDI
T1 sequence (looked up): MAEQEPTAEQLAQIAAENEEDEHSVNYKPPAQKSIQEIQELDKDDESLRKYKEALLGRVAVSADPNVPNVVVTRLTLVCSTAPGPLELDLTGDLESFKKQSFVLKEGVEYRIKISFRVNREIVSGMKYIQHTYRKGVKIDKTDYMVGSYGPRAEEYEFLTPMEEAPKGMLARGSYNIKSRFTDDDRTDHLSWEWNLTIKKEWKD
Described as above. The conditions noted are these: both partners purified.

Assay [4] deals with T1, Alexa647-labeled RhoGDI1 (wt). Description: not stated; association rate constant determined independently for wildtype GDI (Figure S17). The conditions noted are these: both partners purified.

Cdc42, homogeneously geranylgeranylated in vitro, sequence (P60953 whole entry): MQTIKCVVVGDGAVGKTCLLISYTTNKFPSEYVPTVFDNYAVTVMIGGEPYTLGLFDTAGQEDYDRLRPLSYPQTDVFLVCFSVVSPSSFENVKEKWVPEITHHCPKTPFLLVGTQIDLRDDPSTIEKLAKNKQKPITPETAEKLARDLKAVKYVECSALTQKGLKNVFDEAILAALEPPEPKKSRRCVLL

B1: full-length RhoGDI1 (residues 1 to 204), bovine (natural protein, UniProt P19803 1-204, looked up)
chain: MAEQEPTAEQLAQIAAENEEDEHSVNYKPPAQKSIQEIQELDKDDESLRKYKEALLGRVAVSADPNVPNVVVTRLTLVCSTAPGPLELDLTGDLESFKKQSFVLKEGVEYRIKISFRVNREIVSGMKYIQHTYRKGVKIDKTDYMVGSYGPRAEEYEFLTPMEEAPKGMLARGSYNIKSRFTDDDRTDHLSWEWNLTIKKEWKD
modifications: triply labeled (2H, 13C, 15N) in the NMR samples
As to B1, the “inhibition of EDTA-induced Mant-GDP dissociation from prenylated Cdc42 with saturating (5 μM) RhoGDI, against free Cdc42” value in assay [1] came to 83 fold.

With B2, the “acceleration of Mant-GDP dissociation from prenylated Cdc42 with 5 μM RhoGDI L56G, against wt RhoGDI” value in assay [1] turned out to be 5 fold.

B3: Cy3-labeled, prenylated Cdc42 (natural protein)
chain: not shown
modifications: prenylated (residue not stated); Cy3 donor (site not stated)
notes: Cdc42, Rho family small GTPase
With B3, in assay [2], the Kd was 4 nM and the koff was 0.2 s⁻¹. Further, in assay [3], the Kd is 0.09 nM and the koff is 0.0004 s⁻¹. The same molecule registered a kon in assay [4] of 5e+06 M⁻¹ s⁻¹.
